Reference: patent US5939560A, “Inhibitors of DP-mediated processes, compositions and therapeutic methods thereof” (Ferring B.V., priority 1993, dated 1999)

Substrate: C[C@H](N)C(=O)N1CCC[C@H]1C(=O)Nc1ccc2c(C(F)(F)F)cc(=O)oc2c1
Experiment: purified protein, by the assay type
Settings: other: substrate of DP-IV assay
Procedure: All compounds were tested in vitro against pure human DP-IV (purchased from M & E, Copenhagen, Denmark). […] Ki values were determined using Dixon plots.

B1: pure human DP-IV (Homo sapiens) (protein)
chain: MKTPWKVLLGLLGAAALVTIITVPVVLLNKGTDDATADSRKTYTLTDYLKNTYRLKLYSLRWISDHEYLYKQENNILVFNAEYGNSSVFLENSTFDEFGHSINDYSISPDGQFILLEYNYVKQWRHSYTASYDIYDLNKRQLITEERIPNNTQWVTWSPVGHKLAYVWNNDIYVKIEPNLPSYRITWTGKEDIIYNGITDWVYEEEVFSAYSALWWSPNGTFLAYAQFNDTEVPLIEYSFYSDESLQYPKTVRVPYPKAGAVNPTVKFFVVNTDSLSSVTNATSIQITAPASMLIGDHYLCDVTWATQERISLQWLRRIQNYSVMDICDYDESSGRWNCLVARQHIEMSTTGWVGRFRPSEPHFTLDGNSFYKIISNEEGYRHICYFQIDKKDCTFITKGTWEVIGIEALTSDYLYYISNEYKGMPGGRNLYKIQLSDYTKVTCLSCELNPERCQYYSVSFSKEAKYYQLRCSGPGLPLYTLHSSVNDKGLRVLEDNSALDKMLQNVQMPSKKLDFIILNETKFWYQMILPPHFDKSKKYPLLLDVYAGPCSQKADTVFRLNWATYLASTENIIVASFDGRGSGYQGDKIMHAINRRLGTFEVEDQIEAARQFSKMGFVDNKRIAIWGWSYGGYVTSMVLGSGSGVFKCGIAVAPVSRWEYYDSVYTERYMGLPTPEDNLDHYRNSTVMSRAENFKQVEYLLIHGTADDNVHFQQSAQISKALVDVGVDFQAMWYTDEDHGIASSTAHQHIYTHMSHFIKQCFSLP
  Km: 0.8 µM
